One molecule from paper PMC2525512 can be followed below.

The data set addresses T1, murine OX40-human IgG Fc fusion (extracellular portion) (Mus musculus, UniProt P47741 20-211).
T1 sequence: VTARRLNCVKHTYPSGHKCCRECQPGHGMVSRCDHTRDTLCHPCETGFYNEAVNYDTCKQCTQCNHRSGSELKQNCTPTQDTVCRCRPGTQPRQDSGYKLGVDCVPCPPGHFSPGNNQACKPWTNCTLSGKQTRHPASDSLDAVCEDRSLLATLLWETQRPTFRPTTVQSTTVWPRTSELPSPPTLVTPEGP
Description: filter binding.

B1: aptamer 9.8PM (point mutant) (structured_RNA)
RNA: GGGAGGACGAUGCGGCAGUCUGCAUCGUAGGAUUAGCCACCGUAUACUUUCCCACCAGACGACUCGCUGAGGAUCCGAGA
modifications: 2'-fluoro pyrimidines, 2'-OH purines
Turning to B1, the binding result is “no binding”.
